Test results from patent US8022177B2, “Peptides and calcium regulation in mammalian cells” (The Board of Trustees of the University of Illinois, priority 2005, dated 2011).

Key:
[1] = molecular target: T1, Cav3.1 (Homo sapiens, UniProt O43497); assay: Whole-cell patch clamp of Cav3.1 dependent LVA calcium current in HEK-293/Cav3.1 cells transiently transfected with γ subunits (Example 1); assay type: cell-based; conditions: for Effect on current kinetics or voltage dependency: HEK-293/Cav3.1; for Peak current density, % of control value: HEK-293/Cav3.1, normalized to adCGI vector control, mean±S.E.M.; for Activation V 0.5 / Activation k / Deactivation tau @ −100 mV, Fast / Inactivation Tau @ −20 mV / Inactivation V 0.5 / Inactivation k / Time to peak @ −20 mV / V peak: Table 2
T1 construct: expressed in transfected cells; host or cells: HEK-293, stably transfected
Description: 2.3. Transfection. Untransfected HEK-293 cells, HEK-293 cell lines stably transfected with Cav3.1, and HL-1 cells were transiently transfected with vectors containing γ subunit, GFP, and modified CFP cDNAs using Lipofectamine 2000 reagent (InVitrogen) as per the manufacturer's recommendations. HEK-293 cells were grown to 70-80% confluence before transfection. HL-1 cells were grown to 50-75% confluence before transfection.
2.4. Electrophysiology. Whole-cell calcium currents were recorded using an Axopatch-1 D patch clamp system and Clampex 8.0 software. Pipettes were fabricated from borosilicate glass and had typical resistances of 2-4 MΩ. The pipette solution contained (in mM): 130 NaCl, 10 EGTA, 2 MgCl2, 1 CaCl2, 10 HEPES, 3 Tris-ATP, and either 0.3 Li2GTP or 0.3 Tris-GTP, adjusted to pH 7.4 with NaOH and 280 mOsm with sucrose. The bath solution contained (in mM): 137 NaCl (for HEK-293 experiments) or 120 TEACl (for HL-1 experiments), 1 KCl, 1 MgCl2, 0.33 NaH2PO4, 2 CaCl2 (for HEK-293 experiments) or 5 CaCl2 (for HL-1 experiments), 10 glucose (for HL-1 experiments only), 10 HEPES, and 30 μM TTX (for HEK-293 experiments only), adjusted to pH 7.4 with NaOH (for HEK-293 experiments) or TEAOH (for HL-1 experiments) and 280 mOsm with sucrose. NaCl was used as the major salt in the pipette solution order to eliminate any outward K+ currents.
Recordings from HEK-293 cells were made 48-96 h posttransfection, at which time expression, as measured by GFP fluorescence, peaked. HL-1 cells were used for recording 24-36 h post-transfection. Current densities in HEK-293/Cav3.1 cell experiments were normalized to control for variation in current expression in the different frozen stocks of stable cell lines used. […] HL-1 experiments were performed using a single stock of cells. All HEK-293 data are from current records in which pipette and whole-cell capacitance were about 100% compensated and series resistance was compensated to >80%. Whole-cell capacitance and series resistance were not compensated for HL-1 recordings as currents were typically <100 pA. Series resistance values were typically <10 MX, and no records were used in which the voltage error (as defined by Ver=Imax×Ra) was greater than 5 mV. The holding potential of all protocols used for HEK-293 cells was −100 mV except for steady-state inactivation protocols where the holding potential was −120 mV. The holding potential for protocols used for HL-1 cells was −90 mV. Current-voltage relationships for all HEK-293 and HL-1 cells were measured using 50 ms test depolarizations. Peak current amplitudes for activation curves were determined by fitting tail currents, elicited by stepping membrane voltage from varying test potentials to −60 mV, with the Boltzman equation. Test potential steps for activation protocols were of varied durations, corresponding to the time to peak of the elicited current. Inactivation curves were determined by fitting peak amplitudes of currents, observed in a test pulse to −20 mV, following 500 ms steps to varying potentials, with the Boltzman equation. Time to peak was determined using the current-voltage protocol described above. Inactivation time constants were determined by fitting the decay phase of currents to an exponential equation and deactivation time constants were determined by fitting the decay phase of tail currents to an exponential equation. […] Currents were recorded at 40 kHz and on-line filtered at either 5 or 10 kHz. In some cases currents were off-line filtered at 1 kHz to further reduce noise. Current/voltage relationships and tail currents were recorded from HEK cells using an on-line P/−4 subtraction procedure. Calcium currents recorded from HL-1 cells were off-line leak subtracted. The average membrane capacitance of untransfected HEK-293 cells in pilot experiments was 12.5±1.4 pF (n=8). […]

[2] = molecular target: T1, Cav3.1; assay: Whole-cell patch clamp of Cav3.1 LVA current in HEK/Cav3.1 cells transfected with γ6/γ4 chimeric and truncated constructs (Example 2); assay type: cell-based; conditions: Table 1 (Example 2)
Description: Transfection—HEK-293 cell lines stably transfected with Cav3.1 were transiently transfected with vectors containing γ subunit cDNAs using Lipofectamine 2000 reagent (Invitrogen) as per the manufacturer's recommendations. HEK-293 cells were grown to 70-80% confluence before transfection.
Electrophysiology—Whole-cell calcium currents were recorded using an Axopatch-1D patch clamp system and Clampex 8.0 software. Pipettes were fabricated from borosilicate glass and had typical resistances of 2-4 MΩ. The pipette solution contained (in mM): 130 NaCl, 10 EGTA, 2 MgCl2, 1 CaCl2, 10 HEPES, 3 Tris-ATP, and 0.3 Tris-GTP, adjusted to pH 7.4 with NaOH and 280 mOsm with sucrose. The bath solution contained (in mM): 137 NaCl, 1 KCl, 1 MgCl2, 0.33 NaH2PO4, 2 CaCl2, 10 HEPES, and 30 μM TTX, adjusted to pH 7.4 with NaOH and 280 mOsm with sucrose.
Recordings from HEK-293 cells were made 48-96 hours post-transfection, at which time expression, as measured by GFP fluorescence, peaked. All HEK-293 data is from current records in which pipette and whole-cell capacitance were about 100% compensated and series resistance was compensated to >80%. Series resistance values were typically <10 MΩ (megaohms), and no records were used in which the voltage error (as defined by Ver=Imax×Ra) was greater than 5 mV. The holding potential of all protocols used for HEK-293 cells was −100 mV except for steady-state inactivation protocols where the holding potential was −120 mV. Current-voltage relationships for all HEK-293 cells were measured using 50 ms test depolarizations. Peak current amplitudes for activation curves were determined by fitting tail currents, elicited by stepping membrane voltage from varying test potentials to −60 mV, with the Boltzman equation. Test potential steps for activation protocols were of varied durations, corresponding to the time to peak of the elicited current. Inactivation curves were determined by fitting peak amplitudes of currents, observed in a test pulse to −20 mV, following 500 ms steps to varying potentials, with the Boltzman equation. Time to peak was determined using the current-voltage protocol described above. Inactivation time constants were determined by fitting the decay phase of currents to an exponential equation and deactivation time constants were determined by fitting the decay phase of tail currents to an exponential equation. […] When a double exponential equation was used to fit Cav3.1 tail currents, the magnitude of the fast component was about 10 fold that of the slow component. Currents were recorded at 40 kHz and on-line filtered at 5. In some cases currents were off-line filtered at 1 kHz to further reduce noise. Current-voltage relationships and tail currents were recorded from HEK cells using an on-line P/−4 subtraction procedure. The average membrane capacitance of untransfected HEK-293 cells in pilot experiments was 12.5+/−0.4 pF (n=8).
Statistical Analysis—All data are reported as mean±SEM and tested for significance by one-way ANOVA. A value of P<0.05 was considered significant and when significant p-values were encountered groups were compared using the Tukey post-hoc test.

T1 sequence (O43497 whole entry): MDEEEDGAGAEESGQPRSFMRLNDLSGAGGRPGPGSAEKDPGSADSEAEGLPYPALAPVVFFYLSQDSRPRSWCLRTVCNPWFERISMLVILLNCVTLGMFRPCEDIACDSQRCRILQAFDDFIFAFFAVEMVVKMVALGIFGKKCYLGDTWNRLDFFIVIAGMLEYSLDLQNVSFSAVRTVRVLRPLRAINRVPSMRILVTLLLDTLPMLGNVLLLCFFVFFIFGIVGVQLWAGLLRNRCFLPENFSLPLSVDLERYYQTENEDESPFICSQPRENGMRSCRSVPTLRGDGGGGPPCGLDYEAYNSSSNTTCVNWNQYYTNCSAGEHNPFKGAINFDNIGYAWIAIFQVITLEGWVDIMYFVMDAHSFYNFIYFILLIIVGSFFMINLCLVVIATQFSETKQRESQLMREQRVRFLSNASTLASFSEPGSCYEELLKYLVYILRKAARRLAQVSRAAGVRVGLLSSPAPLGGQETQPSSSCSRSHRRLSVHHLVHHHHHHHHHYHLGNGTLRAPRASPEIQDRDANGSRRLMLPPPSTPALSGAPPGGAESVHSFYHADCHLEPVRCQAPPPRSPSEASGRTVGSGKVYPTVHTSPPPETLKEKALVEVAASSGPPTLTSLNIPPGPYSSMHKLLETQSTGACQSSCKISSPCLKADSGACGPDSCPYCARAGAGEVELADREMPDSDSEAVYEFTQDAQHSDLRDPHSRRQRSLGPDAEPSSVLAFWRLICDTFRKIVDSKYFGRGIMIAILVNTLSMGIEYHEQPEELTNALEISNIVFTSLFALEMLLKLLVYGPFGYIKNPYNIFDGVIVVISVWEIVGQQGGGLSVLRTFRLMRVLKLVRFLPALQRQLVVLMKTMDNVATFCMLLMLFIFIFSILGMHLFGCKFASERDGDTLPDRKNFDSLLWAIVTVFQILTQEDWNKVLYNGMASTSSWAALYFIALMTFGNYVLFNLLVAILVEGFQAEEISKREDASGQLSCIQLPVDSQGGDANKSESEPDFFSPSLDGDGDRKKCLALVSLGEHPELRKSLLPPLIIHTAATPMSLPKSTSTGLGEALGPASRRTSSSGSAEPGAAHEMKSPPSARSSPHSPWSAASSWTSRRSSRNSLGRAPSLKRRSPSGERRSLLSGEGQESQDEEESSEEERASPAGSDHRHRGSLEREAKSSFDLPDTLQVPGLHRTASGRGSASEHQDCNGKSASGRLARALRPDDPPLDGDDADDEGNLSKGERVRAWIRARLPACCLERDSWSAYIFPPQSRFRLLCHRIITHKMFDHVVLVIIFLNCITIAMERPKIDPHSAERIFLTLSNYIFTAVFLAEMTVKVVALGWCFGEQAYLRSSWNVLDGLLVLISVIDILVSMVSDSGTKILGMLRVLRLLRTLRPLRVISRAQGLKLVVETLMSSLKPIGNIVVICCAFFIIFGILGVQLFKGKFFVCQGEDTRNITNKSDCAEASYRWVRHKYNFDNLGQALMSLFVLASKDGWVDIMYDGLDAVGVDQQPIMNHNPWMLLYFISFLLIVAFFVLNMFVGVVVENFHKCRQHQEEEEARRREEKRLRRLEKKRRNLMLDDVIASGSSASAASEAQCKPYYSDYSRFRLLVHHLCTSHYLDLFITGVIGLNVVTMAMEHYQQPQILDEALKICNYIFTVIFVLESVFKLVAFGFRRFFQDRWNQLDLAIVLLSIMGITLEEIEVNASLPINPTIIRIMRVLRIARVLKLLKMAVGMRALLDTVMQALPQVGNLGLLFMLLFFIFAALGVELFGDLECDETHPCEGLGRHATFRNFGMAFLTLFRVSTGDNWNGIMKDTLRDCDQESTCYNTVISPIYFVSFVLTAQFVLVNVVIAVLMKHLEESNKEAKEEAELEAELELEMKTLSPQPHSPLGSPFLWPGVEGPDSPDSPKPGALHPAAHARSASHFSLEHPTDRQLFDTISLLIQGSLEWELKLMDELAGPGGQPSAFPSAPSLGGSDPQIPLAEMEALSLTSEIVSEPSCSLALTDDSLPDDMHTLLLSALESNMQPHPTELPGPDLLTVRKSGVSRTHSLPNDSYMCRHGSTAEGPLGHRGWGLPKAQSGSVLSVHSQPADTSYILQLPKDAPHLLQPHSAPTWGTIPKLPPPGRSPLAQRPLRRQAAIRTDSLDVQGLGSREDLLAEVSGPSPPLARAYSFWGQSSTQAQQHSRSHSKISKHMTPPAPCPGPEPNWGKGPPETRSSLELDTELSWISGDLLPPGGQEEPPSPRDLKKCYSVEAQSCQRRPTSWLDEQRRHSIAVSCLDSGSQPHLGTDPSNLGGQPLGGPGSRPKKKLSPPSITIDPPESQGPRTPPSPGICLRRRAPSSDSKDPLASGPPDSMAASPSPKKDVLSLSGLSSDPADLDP

B1: γ7: rat calcium channel γ7 subunit (AF361345), SEQ ID NO:50 (protein, listed as Rattus norvegicus)
chain: MSHCSSRALTLLSSVFGACGLLLVGIAVSTDYWLYMEEGTVLPQNQTTEVKMALHAGLWRVCFFAGREKGRCVASEYFLEPEINLVTENTENILKTVRTATPFPMVSLFLVFTAFVISNIGHIRPQRTILAFVSGIFFILSGLSLVVGLVLYISSINDEVMNRPSSSEQYFHYRYGWSFAFAASSFLLKEGAGVMSVYLFTKRYAEEEMYRPHPAFYRPRLSDCSDYSGQFLQPEAWRRGRSPSDISSDVSIQMTQNYPPAIKYPDHLHISTSPC
For B1, the “Effect on current kinetics or voltage dependency” value [1] was “did not alter current kinetics or voltage dependency”, the “Peak current density, % of control value” [1] was 99%±8% and the “Effect on Cav3.1 current” value ([1]; HEK-293 cells) was “no significant effect”. For the same molecule, the “Activation V 0.5” value [1] was −28.1 ± 1.2 (n = 11) mV, the Activation k [1] was 11.1 ± 0.3 (n = 11) and the “Deactivation tau @ −100 mV, Fast” value [1] was 1.30 ± 0.10 (n = 11) ms. For the same molecule, the “Inactivation Tau @ −20 mV” value [1] was 17.2 ± 0.5 (n = 10) ms, the “Inactivation V 0.5” value [1] was −68.6 ± 1.4 (n = 10) mV and the Inactivation k [1] was 6.0 ± 0.1 (n = 10). For the same molecule, the “Time to peak @ −20 mV” value [1] was 7.0 ± 0.4 (n = 11) ms and the V peak [1] was −24.1 ± 0.9 (n = 11) mV.

B2: γ6S: rat calcium channel γ6 subunit, short isoform (AF361344), SEQ ID NO:49 (protein, listed as Rattus norvegicus)
chain: MMWSNFFMQEEDRRRTAVGRRRAQEQQNLGLTPEREGKIKLGLLVAIVGATLAVLAVGTEFWVELNTYKTNGSAVCEAAHLGLWKVCIKRLWQADVPAGRETCGPAELPGEANCTYFKFFTTGENAHIFQRTTKKGLLLFVSLEVFRHSVRALLQGVNPETPPAPRLAYEYSWSLGCGVGAGLILLLGGVCFLLLTLPSWPWRSLCPKRGGPTA
B2 was tested, and the “Effect on current kinetics or voltage dependency” value [1] was “did not alter current kinetics or voltage dependency”, the “Peak current density, % of control value” [1] was 31%±13% and the “Activation V 0.5” value [1] was −36.3 ± 6.2 (n = 4) mV. For the same molecule, the Activation k [1] was 12.7 ± 1.5 (n = 4), the “Deactivation tau @ −100 mV, Fast” value [1] was 1.20 ± 0.06 (n = 3) ms and the “Inactivation Tau @ −20 mV” value [1] was 22.9 ± 0.7 (n = 2) ms. The “Inactivation V 0.5” value [1] was −72.0 ± 5.9 (n = 3) mV, the Inactivation k [1] was 5.9 ± 0.7 (n = 3) and the “Time to peak @ −20 mV” value [1] was 6.4 ± 0.5 (n = 3) ms. The V peak [1] was −27.0 ± 2.5 (n = 5) mV, the “Decrease in Cav3.1 current density” value ([1]; co-expression with Cav3.1 in HEK-293 cells) was 69% and the “Activation V 0.5” value [2] was −36.3 ± 6.2 (n = 4) mV. For the same molecule, the Activation k [2] was 12.7 ± 1.5 (n = 4), the “Deactivation tau @ −100 mV, Fast” value [2] was 1.20 ± 0.06 (n = 3) ms and the “Inactivation V 0.5” value [2] was −72.0 ± 5.9 (n = 3) mV. For the same molecule, the Inactivation k [2] was 5.9 ± 0.7 (n = 3), the “Inactivation tau @−20 mV” value [2] was 22.9 ± 0.7 (n = 2) ms and the “Time to peak @ −20 mV” value [2] was 6.4 ± 0.5 (n = 3) ms. The V peak [2] was −27.0 ± 2.5 (n = 5) mV.
